From patent US20080274055A1 (US Dept. of Health and Human Services, published 2008)
Substitutions are numbered along the chain they refer to.

B1: HuCOL-1AbrCDR (antibody, V domains shown)
VH: EVQLVQSGAEVVKPGASVKMSCKASGFNIKDYYMHWVKQRPEQGLEWIGWIDPENGDTEYAQKFQGKATMTTDTSTSTAYLELSSLRSEDTAVYYCNTRGLSTMITTRWFFDVWGAGTLVTVSS
VL: DIVLTQSPASLAVSLGERATINCKSSQSVSASGYSYMHWYQQKPGQPPKLLIYLASNLQSGVPARFSGSGSGTDFTLTISSVQAEDVATYYCQHSRELPTFGGGTKLEIK
notes: also called FRV1; HuCOL-1 24,25,27L/61H
B2: HuCOL-1AbrCDR framework variant 10 (FRV10) (antibody, V domains shown)
VH: B1 VH with E1Q, V12K, M20V, F27Y, K38R, I48M, K67R, A68V, A79V, L81M
VL: B1 VL
notes: also called HuCOL-1FRV10
B3: HuCOL-1AbrCDR framework variant 7 (FRV7) (antibody, V domains shown)
VH: B1 VH with M20V, F27Y, K38R, I48M, K67R, A68V, A79V, L81M
VL: B1 VL
notes: also called HuCOL-1FRV7; FR7
B4: HuCOL-1AbrCDR framework variant 4 (FRV4) (antibody, V domains shown)
VH: B1 VH with M20V, K38R, I48M, K67R, A79V, L81M
VL: B1 VL
notes: also called HuCOL-1FRV4
B5: HuCOL-1 (antibody, V domains shown)
VH: B1 VH with R40A, E42G, Q62P
VL: B1 VL with K24R, S25A, Q27K
notes: Whole humanized antibody; also called humanized COL-1; ATCC PTA-4661
B6: murine COL-1 monoclonal antibody (antibody, V domains shown)
VH: EVQLQQSGAELVRSGASVKMSCTASGFNIKDYYMHWVKQRPEQGLEWIGWIDPENGDTEYAPKFQGKATMTTDTSSNTAYLQLSSLTSEDTAVYYCNTRGLSTMITTRWFFDVWGAGTTVAVSS
VL: DIVLTQSPASLTVSLGLRATISCRASKSVSASGYSYMHWYQQRPGQPPKLLIYLASNLQSGVPARFSGSGSGTDFTLNIHPVEEEDAATYYCQHSRELPTFGGGTKLEIK
notes: Whole murine antibody; also called mCOL-1; muCOL-1
B7: chimeric COL-1 (antibody, V domains shown)
VH: B6 VH
VL: B6 VL
B8: FRV12 (antibody, name in Kabat numbering, V domains shown)
VH: B1 VH with E1Q, V12K, M20V, F27Y, K38R, I48M, K67R, A68V, A79V, L81M
VL: B1 VL with L4M, A64D, V82L, T89V, L107V
notes: Kabat positions (see notes of FRV2 and FRV8); also called HuCOL-1AbrCDR framework variant 12
B9: FRV9 (antibody, name in Kabat numbering, V domains shown)
VH: B1 VH with M20V, F27Y, K38R, I48M, K67R, A68V, A79V, L81M
VL: B1 VL with L4M, A64D, V82L, T89V, L107V
notes: Kabat positions (see notes of FRV2 and FRV8); also called HuCOL-1AbrCDR framework variant 9
B10: FRV11 (antibody, name in Kabat numbering, V domains shown)
VH: B1 VH with E1Q, V12K, M20V, F27Y, K38R, I48M, K67R, A68V, A79V, L81M
VL: B1 VL with L4M, V82L, L107V
notes: Kabat positions (see notes of FRV2 and FRV8); also called HuCOL-1AbrCDR framework variant 11
B11: FRV2 (antibody, name in Kabat numbering, V domains shown)
VH: B1 VH
VL: B1 VL with L4M, V82L, L107V
notes: also called HuCOL-1AbrCDR framework variant 2
B12: FRV8 (antibody, name in Kabat numbering, V domains shown)
VH: B1 VH with M20V, F27Y, K38R, I48M, K67R, A68V, A79V, L81M
VL: B1 VL with L4M, V82L, L107V
notes: Kabat positions; also called HuCOL-1AbrCDR framework variant 8
B13: FRV6 (antibody, name in Kabat numbering, V domains shown)
VH: B1 VH with M20V, K38R, I48M, K67R, A79V, L81M
VL: B1 VL with L4M, A64D, V82L, T89V, L107V
notes: Kabat positions (see notes of FRV2 and FRV5); also called HuCOL-1AbrCDR framework variant 6
B14: FRV5 (antibody, name in Kabat numbering, V domains shown)
VH: B1 VH with M20V, K38R, I48M, K67R, A79V, L81M
VL: B1 VL with L4M, V82L, L107V
notes: Kabat positions; also called HuCOL-1AbrCDR framework variant 5
B15: FRV3 (antibody, name in Kabat numbering, V domains shown)
VH: B1 VH
VL: B1 VL with L4M, A64D, V82L, T89V, L107V
notes: Kabat positions (see note of FRV2); also called HuCOL-1AbrCDR framework variant 3

target: anti-V region antibodies to COL-1 present in the serum of patient two; assay: SPR competition, serum of patient two; reference HuCOL-1

Binder | fold higher IC50 than HuCOL-1
B1 | 1.5 fold

target: anti-V region antibodies to COL-1 present in the serum of patient one; assay: SPR competition, serum of patient one; reference HuCOL-1

Binder | fold higher IC50 than HuCOL-1
B1 | 1.5 fold

target: T1, carcinoembryonic antigen (CEA) (human, UniProt P06731 35-685); assay: competition RIA against 125I-mCOL-1 on CEA; modified Scatchard
T1 sequence (looked up): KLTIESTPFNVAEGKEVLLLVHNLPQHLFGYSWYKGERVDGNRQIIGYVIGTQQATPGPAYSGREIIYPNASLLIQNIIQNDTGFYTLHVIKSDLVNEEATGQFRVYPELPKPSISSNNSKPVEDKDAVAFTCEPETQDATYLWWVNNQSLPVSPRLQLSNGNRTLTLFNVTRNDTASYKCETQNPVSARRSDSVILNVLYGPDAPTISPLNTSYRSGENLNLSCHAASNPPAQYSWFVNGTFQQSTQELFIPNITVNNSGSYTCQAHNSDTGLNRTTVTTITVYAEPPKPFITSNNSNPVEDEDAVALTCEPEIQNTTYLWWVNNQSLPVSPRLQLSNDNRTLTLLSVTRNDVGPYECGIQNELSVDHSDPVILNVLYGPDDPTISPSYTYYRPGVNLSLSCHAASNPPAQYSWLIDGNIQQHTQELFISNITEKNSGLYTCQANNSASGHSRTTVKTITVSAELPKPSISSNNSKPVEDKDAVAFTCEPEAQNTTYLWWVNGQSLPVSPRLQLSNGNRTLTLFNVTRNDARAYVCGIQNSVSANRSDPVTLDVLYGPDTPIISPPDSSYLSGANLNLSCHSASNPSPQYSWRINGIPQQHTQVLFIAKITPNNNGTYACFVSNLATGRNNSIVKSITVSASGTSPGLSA
Experimental: (§1) Competition RIA: The relative antigen-binding affinity of HuCOL-1, HuCOL-1AbrCDR and HuCOL-1AbrCDR antibodies with framework-substitutions was determined using a competition RIA as described previously (De Pascalis et al., J Immunol., 169:3076-3084, 2002). Twenty-five μl of serial dilutions of the antibodies to be tested, as well as mCOL-1, chimeric COL-1, and HuCOL-1 (positive controls) and HuIgG (negative control), prepared in 1% BSA in PBS, were added to microtiter plates containing 10 ng of […] saturated with 5% BSA in PBS. ¹²⁵I-labeled mCOL-1 (100,000 cpm in 25 μl) was then added to each well. After an overnight incubation at 4° C., the plates were washed and the bound radioactivity was counted in a γ-scintillation counter.
(§2) Competition RIA experiments were performed to determine the relative CEA-binding affinity of chimeric COL-1, HuCOL-1, HuCOL-1AbrCDR, and the different HuCOL-1AbrCDR-derived antibodies. Serial dilutions of unlabeled antibodies were used to compete with the binding of ¹²⁵I-mCOL-1 (FIGS. 4A, 4B and 4C) to CEA.

Binder | Ka
B1 | 2.32e+08 M⁻¹
B2 | 3.04e+08 M⁻¹
B3 | 3.07e+08 M⁻¹
B4 | 2.51e+08 M⁻¹
B5 | 2.78e+08 M⁻¹

target: T1, carcinoembryonic antigen (CEA); assay: competition RIA against 125I-mCOL-1; reference of the fold not named
Experimental: as §1, §2

Binder | Fold Difference
B6 | 1 fold
B7 | 1.4 fold
B1 | 1.2 fold
B8 | 5.6 fold
B9 | 4.5 fold
B10 | 4.5 fold
B2 | 0.9 fold
B3 | 0.9 fold
B4 | 1.1 fold
B11 | 9.5 fold
B12 | 3.6 fold
B13 | 2.8 fold
B14 | 2.7 fold
B15 | 8.6 fold
B5 | 1 fold

target: anti-V region antibodies to COL-1 present in the serum of patient two; assay: SPR competition; reference HuCOL-1; lower end tied to serum EM by Table IV (9.7 against 1.9)

Binder | fold higher IC50 than HuCOL-1
B2 | 5 to 6 fold

target: T1, carcinoembryonic antigen (CEA); assay: competition RIA, unlabeled antibody against 125I-mCOL-1 on CEA; modified Scatchard
Experimental: as §1, §2

Binder | Ka
B6 | 2.74e+08 M⁻¹
B7 | 1.99e+08 M⁻¹
B1 | 2.3e+08 M⁻¹
B8 | 4.9e+07 M⁻¹
B9 | 6.1e+07 M⁻¹
B10 | 6.1e+07 M⁻¹
B2 | 3.04e+08 M⁻¹
B3 | 3.07e+08 M⁻¹
B4 | 2.51e+08 M⁻¹
B11 | 2.9e+07 M⁻¹
B12 | 7.7e+07 M⁻¹
B13 | 1e+08 M⁻¹
B14 | 1.01e+08 M⁻¹
B15 | 3.2e+07 M⁻¹
B5 | 2.78e+08 M⁻¹

target: anti-V region antibodies to COL-1 present in the serum of patient one; assay: SPR competition; reference HuCOL-1; upper end tied to serum MB by Table IV (28.5 against 4.9)

Binder | fold higher IC50 than HuCOL-1
B2 | 5 to 6 fold

target: anti-V region antibodies to COL-1 present in the serum of patient two; assay: SPR competition; soluble antibody against immobilized HuCOL-1 for serum anti-V region antibodies

Binder | IC50
B1 | 2.9 nM
B2 | 9.7 nM
B5 | 1.9 nM

target: anti-V region antibodies to COL-1 present in the serum of patient one; assay: as above

Binder | IC50
B1 | 6.9 nM
B2 | 28.5 nM
B5 | 4.9 nM

target: T1, carcinoembryonic antigen (CEA); assay: competition RIA: unlabeled antibody against 125I-mCOL-1 for binding to CEA, % inhibition against amount competitor Ab (ng), log axis
Excerpt: FIGS. 4A, 4B, and 4C are a series of graphs of a competition radioimmunoassay of HuCOL-1AbrCDR framework variants using ¹²⁵I-mCOL-1. Serial dilutions of unlabeled antibodies were used to compete with the binding of ¹²⁵ImCOL-1. The data was divided into three individual graphs to facilitate viewing. FIG. 4A compares the binding of unlabeled murine COL-1 (muCOL-1), chimeric COL-1 (cCOL-1), HuCOL-1, FRV1 (HuCOL-1AbrCDR), and human IgG (HuIgG). FIG. 4B compares the binding of unlabeled murine HuCOL-1AbrCDR, FRV2, FRV3, FRV4, FRV7, and FRV10. FIG. 4C compares the binding of unlabeled murine HuCOL-1AbrCDR, FRV5, FRV6, FRV8, FRV9, FRV11, and FRV12.
as §1, §2

Binder | IC50 (read off the curve)
B6 | ~20 ng
B7 | ~30 ng
B14 | ~30 ng
